T1: Nme1Cas9 (Neisseria meningitidis, UniProt C9X1G5 1-1082)
T1 sequence: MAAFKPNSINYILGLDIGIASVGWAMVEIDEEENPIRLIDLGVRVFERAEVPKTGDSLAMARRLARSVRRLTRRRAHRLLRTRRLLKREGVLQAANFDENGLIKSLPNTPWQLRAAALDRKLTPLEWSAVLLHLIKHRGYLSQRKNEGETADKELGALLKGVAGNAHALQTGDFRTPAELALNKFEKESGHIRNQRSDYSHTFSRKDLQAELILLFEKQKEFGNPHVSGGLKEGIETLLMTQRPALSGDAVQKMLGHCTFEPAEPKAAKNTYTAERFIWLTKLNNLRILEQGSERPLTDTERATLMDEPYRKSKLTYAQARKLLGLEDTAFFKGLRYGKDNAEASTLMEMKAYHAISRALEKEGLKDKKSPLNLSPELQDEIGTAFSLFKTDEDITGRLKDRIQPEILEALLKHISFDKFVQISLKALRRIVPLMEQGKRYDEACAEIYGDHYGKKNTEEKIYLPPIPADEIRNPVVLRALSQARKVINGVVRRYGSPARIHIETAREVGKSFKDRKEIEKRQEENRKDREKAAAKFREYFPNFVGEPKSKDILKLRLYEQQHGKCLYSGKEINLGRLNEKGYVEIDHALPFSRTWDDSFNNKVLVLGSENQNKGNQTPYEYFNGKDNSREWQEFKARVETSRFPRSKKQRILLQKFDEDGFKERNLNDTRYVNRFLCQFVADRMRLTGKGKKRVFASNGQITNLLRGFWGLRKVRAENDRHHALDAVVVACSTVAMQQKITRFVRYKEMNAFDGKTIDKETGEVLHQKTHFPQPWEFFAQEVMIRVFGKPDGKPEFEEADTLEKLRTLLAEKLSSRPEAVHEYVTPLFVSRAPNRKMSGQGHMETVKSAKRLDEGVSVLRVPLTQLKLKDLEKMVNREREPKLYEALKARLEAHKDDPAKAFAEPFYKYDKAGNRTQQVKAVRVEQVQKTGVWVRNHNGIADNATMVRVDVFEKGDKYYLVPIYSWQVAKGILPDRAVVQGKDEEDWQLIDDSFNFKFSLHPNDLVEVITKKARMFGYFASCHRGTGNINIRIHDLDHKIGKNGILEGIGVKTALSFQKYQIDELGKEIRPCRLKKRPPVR


Legend:
Nme1Cas9 [1] = biological target: T1, Nme1Cas9; assay: filter binding; no AcrIIC2Nme; 5 mM MgCl2; Filter binding: 20 mM Tris pH 7.5, 100 mM KCl, 5 mM MgCl2, 1 mM DTT, 5% glycerol, 0.01% Igepal, 10 ug/mL yeast tRNA, 10 ug/mL BSA, 37 C, 30 min; ITC: 300 mM NaCl, 20 mM Tris pH 7.5, 20 C; gel filtration: 300 mM NaCl, 20 mM Tris pH 7.5; pull-down: 50 mM Tris pH 7.5, 200 mM NaCl, 5% glycerol, 20 mM imidazole; details: protein: recombinant; label: radiolabeled; sgRNA with repeat:anti-repeat hairpin and stem loops 1 and 2
Nme1Cas9 [2] = biological target: T1, Nme1Cas9; assay: filter binding; no AcrIIC2Nme; Filter binding: 20 mM Tris pH 7.5, 100 mM KCl, 5 mM MgCl2, 1 mM DTT, 5% glycerol, 0.01% Igepal, 10 ug/mL yeast tRNA, 10 ug/mL BSA, 37 C, 30 min; ITC: 300 mM NaCl, 20 mM Tris pH 7.5, 20 C; gel filtration: 300 mM NaCl, 20 mM Tris pH 7.5; pull-down: 50 mM Tris pH 7.5, 200 mM NaCl, 5% glycerol, 20 mM imidazole; details: protein: recombinant; label: radiolabeled; hairpin

Binder | Kd (Nme1Cas9 [1]) [nM] | binding result (Nme1Cas9 [2])
full length sgRNA (filter binding) (structured_RNA) RNA: GGUCUGUAAGCGGAUGCCAUAUGGUUGUAGCUCCCUUUCUCGAAAGAGAACCGUUGCUACAAUAAGGCCGUCUGAAAAGAUGUGCCGCAACGCUCUGCCCCUUAAAGCUUCUGCUUUAACGGGCUU | 0.24 ± 0.14 | 
GGUUGUAGCUCCCUUUCUCGAAAGAGAACCGUUGCUACAAUAA (structured_RNA) [repeat:anti-repeat (cr:tracr)] |  | binds

From publication PMC6594998, “Inhibition of CRISPR-Cas9 ribonucleoprotein complex assembly by anti-CRISPR AcrIIC2”
